Test results taken from US20090149339A1 (published 2009).
Ends that are not written are not given here. * marks the point of attachment. Biotin = O=C1N[C@H]2[C@H](CS[C@H]2CCCCC(=O)*)N1

B1: DNAM-1 C-terminal PL peptide AA22L, biotinylated (peptide)
peptide: Biotin-TREDIYVNYPTFSRRPKTRV
B2: CDW125 (IL5R) C-terminal PL peptide AA28L, biotinylated (peptide)
peptide: Biotin-EVICYIEKPGVETLEDSVF
B3: VCAM1 C-terminal PL peptide AA17L, biotinylated (peptide)
peptide: Biotin-ARKANMKGSYSLVEAQKSKV
notes: also called CD106

How the values were obtained:
[1] = molecular target: T1, GST-LIM PDZ domain fusion protein (Human LIM protein AA29-112; PDZ domain 1 of 1) (human, UniProt P08515 1-218 = GST); test: A assay
T1 sequence (P08515 1-218, tags or fused parts left off): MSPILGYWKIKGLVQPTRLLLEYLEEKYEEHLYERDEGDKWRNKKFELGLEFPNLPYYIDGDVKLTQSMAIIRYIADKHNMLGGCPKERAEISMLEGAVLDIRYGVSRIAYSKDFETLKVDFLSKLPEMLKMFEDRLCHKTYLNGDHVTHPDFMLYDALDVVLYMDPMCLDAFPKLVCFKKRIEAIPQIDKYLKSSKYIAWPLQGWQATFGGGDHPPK

[2] = molecular target: T2, GST-AF6 PDZ domain fusion protein (af-6 protein AA985-1077; PDZ domain 1 of 1) (UniProt P08515 1-218 = GST); test: A assay
T2 sequence (P08515 1-218, tags or fused parts left off): as above

[3] = molecular target: T3, GST-41.8 kD PDZ domain fusion protein (hypothetical 41.8 kD protein AA4-85; PDZ domain 1 of 1) (UniProt P08515 1-218 = GST); test: A assay
T3 construct: also called hypoth

[4] = molecular target: T4, GST-MPP1 PDZ domain fusion protein (55 Kd erythrocyte membrane protein AA101-186; PDZ domain 1 of 1) (UniProt P08515 1-218 = GST); test: A assay
[5] = molecular target: T5, GST-RGS12 PDZ domain fusion protein (human regulator of G-protein signalling 12 AA35-103; PDZ domain 1 of 1) (human, UniProt P08515 1-218 = GST); test: A assay
T5 construct: also called RSG12
T5 sequence (P08515 1-218, tags or fused parts left off): as above

[6] = molecular target: T6, GST-NeDLG PDZ domain fusion protein (presynaptic protein sao102, neuroendocrine-dlg; PDZ domains 1-2 of 3) (UniProt P08515 1-218 = GST); test: A assay
T6 construct: also called NeDLG1
T6 sequence (P08515 1-218, tags or fused parts left off): as above

[7] = molecular target: T7, GST-MPP2 PDZ domain fusion protein (maguk p55 subfamily member 2 (DLG2) AA185-273; PDZ domain 1 of 1) (UniProt P08515 1-218 = GST); test: G assay
T7 construct: also called MMP2
T7 sequence (P08515 1-218, tags or fused parts left off): as above

[8] = molecular target: T8, GST-CASK PDZ domain fusion protein (CASK AA495-584; PDZ domain 1 of 1) (mouse, UniProt P08515 1-218 = GST); test: A/G assays
T8 construct: also called mCASK
T8 sequence (P08515 1-218, tags or fused parts left off): as above

[9] = molecular target: GST-LIMK2 PDZ domain fusion protein (human LIM domain kinase 2 AA185-275; PDZ domain 1 of 1) (human, UniProt P08515 1-218 = GST); test: A/G assays
GST-LIMK2 PDZ domain fusion protein (human LIM domain kinase 2 AA185-275; PDZ domain 1 of 1), sequence (P08515 1-218, tags or fused parts left off): as above

[10] = molecular target: GST-NOS1 PDZ domain fusion protein (human neuronal nitric oxide synthase; PDZ domain 1 of 1) (human, UniProt P08515 1-218 = GST); test: A/G assays
GST-NOS1 PDZ domain fusion protein (human neuronal nitric oxide synthase; PDZ domain 1 of 1), sequence (P08515 1-218, tags or fused parts left off): as above

[11] = molecular target: T9, GST-PTN-4 PDZ domain fusion protein (protein-tyrosine phosphatase meg1 AA774-862; PDZ domain 1 of 1) (UniProt P08515 1-218 = GST); test: A/G assays
T9 sequence (P08515 1-218, tags or fused parts left off): as above

[12] = molecular target: GST-prIL16 PDZ domain fusion protein (putative interleukin 16 precursor AA170-383; PDZ domains 1-2 of 2) (UniProt P08515 1-218 = GST); test: A/G assays
GST-prIL16 PDZ domain fusion protein (putative interleukin 16 precursor AA170-383; PDZ domains 1-2 of 2), sequence (P08515 1-218, tags or fused parts left off): as above

[13] = molecular target: T10, GST-KIAA0559 PDZ domain fusion protein (KIAA0559 AA766-870; PDZ1 of 1) (UniProt P08515 1-218 = GST); test: A/G assays
T10 construct: also called K559
T10 sequence (P08515 1-218, tags or fused parts left off): as above

[14] = molecular target: T11, GST-KIAA0316 PDZ domain fusion protein (KIAA0316 AA197-284; PDZ domain 1 of 1) (UniProt P08515 1-218 = GST); test: A/G assays
T11 construct: also called K316

[15] = molecular target: GST-DVL1 PDZ domain fusion protein (human dishevelled segment polarity protein homolog AA248-340); PDZ domain … (human, UniProt P08515 1-218 = GST); test: A/G assays
[16] = molecular target: T12, GST-TAX40 PDZ domain fusion protein (human tax interaction protein 40 AA35-137; PDZ domain 1 of 1) (human, UniProt P08515 1-218 = GST); test: A/G assays
T12 construct: also called TX 40
T12 sequence (P08515 1-218, tags or fused parts left off): as above

[17] = molecular target: T13, GST-TIAM1 PDZ domain fusion protein (T-lymphoma invasion and metastasis inducing protein 1 AA1001-1088); PDZ 1 … (UniProt P08515 1-218 = GST); test: A/G assays
T13 sequence (P08515 1-218, tags or fused parts left off): as above

[18] = molecular target: T14, GST-KIAA0303 PDZ domain fusion protein (KIAA0303 AA652-742; PDZ domain 1 of 1) (UniProt P08515 1-218 = GST); test: A/G assays
T14 construct: also called K303
T14 sequence (P08515 1-218, tags or fused parts left off): as above

[19] = molecular target: T15, GST-CBP PDZ domain fusion protein (Cytohesin binding protein HE AA85-175; PDZ domain 1 of 1) (UniProt P08515 1-218 = GST); test: A/G assays
T15 construct: also called Prot
T15 sequence (P08515 1-218, tags or fused parts left off): as above

[20] = molecular target: GST-MINT3 PDZ domain fusion protein (human MINT3 AA11-52; PDZ domain 1 of 1) (human, UniProt P08515 1-218 = GST); test: A/G assays
GST-MINT3 PDZ domain fusion protein (human MINT3 AA11-52; PDZ domain 1 of 1), sequence (P08515 1-218, tags or fused parts left off): as above

[21] = molecular target: T16, GST-TAX2 PDZ domain fusion protein (human tax interaction protein 2 AA54-140; PDZ domain 1 of 1) (human, UniProt P08515 1-218 = GST); test: A/G assays
T16 construct: also called TX 2
T16 sequence (P08515 1-218, tags or fused parts left off): as above

[22] = molecular target: T17, GST-TAX33 PDZ domain fusion protein (tax interaction protein 33 AA73-162; PDZ domain 1 of 1) (UniProt P08515 1-218 = GST); test: A/G assays
T17 construct: also called TX33
T17 sequence (P08515 1-218, tags or fused parts left off): as above

[23] = molecular target: T18, GST-SYN1a PDZ domain fusion protein (alpha1-syntrophin AA96-189; PDZ domain 1 of 1) (UniProt P08515 1-218 = GST); test: A/G assays
T18 construct: also called SYN 1 alpha; SYNTR 1 alpha
T18 sequence (P08515 1-218, tags or fused parts left off): as above

[24] = molecular target: T19, GST-TAX43 PDZ domain fusion protein (human tax interaction protein 43 AA15-85; PDZ domain 1 of 1) (human, UniProt P08515 1-218 = GST); test: A/G assays
T19 construct: also called TX 43
T19 sequence (P08515 1-218, tags or fused parts left off): as above

[25] = molecular target: T20, GST-PSD95 PDZ domain fusion protein (human post-synaptic density protein 95 AA387-724; PDZ domains 1-3 of 3) (human, UniProt P08515 1-218 = GST); test: A and G assays
T20 sequence (P08515 1-218, tags or fused parts left off): as above

[26] = molecular target: T9, GST-PTN-4 PDZ domain fusion protein …; test: G assay
[27] = molecular target: T5, GST-RGS12 PDZ domain fusion protein …; test: G assay
[28] = molecular target: T1, GST-LIM PDZ domain fusion protein …; test: A/G assays
[29] = molecular target: T7, GST-MPP2 PDZ domain fusion protein …; test: A/G assays
[30] = molecular target: T2, GST-AF6 PDZ domain fusion protein (af-6 …); test: A/G assays
[31] = molecular target: T3, GST-41.8 kD PDZ domain fusion protein …; test: A/G assays
[32] = molecular target: T4, GST-MPP1 PDZ domain fusion protein (55 …); test: A/G assays
[33] = molecular target: T20, GST-PSD95 PDZ domain fusion protein …; test: A/G assays
[34] = molecular target: T6, GST-NeDLG PDZ domain fusion protein …; test: A/G assays
[35] = molecular target: T13, GST-TIAM1 PDZ domain fusion protein …; test: A assay
[36] = molecular target: T14, GST-KIAA0303 PDZ domain fusion protein …; test: A assay
[37] = molecular target: T5, GST-RGS12 PDZ domain fusion protein …; test: A/G assays

| Binder | binding result [3] | binding result [4] | binding result [6] | binding result [8] | binding result [9] | binding result [10] | binding result [11] | binding result [12] | binding result [13] | binding result [14] | binding result [15] | binding result [16] | binding result [17] | binding result [18] | binding result [19] | binding result [20] | binding result [21] | binding result [22] | binding result [23] | binding result [24] | other results |
| --- | --- | --- | --- | --- | --- | --- | --- | --- | --- | --- | --- | --- | --- | --- | --- | --- | --- | --- | --- | --- | --- |
| B1 | binds | binds | binds | no binding | no binding | no binding | no binding | no binding | no binding | no binding | no binding | no binding | no binding | no binding | no binding | no binding | no binding | no binding | no binding | no binding | binding result [1]: binds; binding result [2]: binds; binding result [5]: binds; binding result [7]: binds; binding result [25]: binds |
| B2 |  |  |  | no binding | no binding | no binding |  | no binding | no binding | no binding | no binding | no binding | no binding | no binding | no binding | no binding | no binding | no binding | no binding | no binding | binding result [26]: binds; binding result [27]: binds; binding result [28]: no binding; binding result [29]: no binding; binding result [30]: no binding; binding result [31]: no binding; binding result [32]: no binding; binding result [33]: no binding; binding result [34]: no binding |
| B3 | binds | binds | binds | no binding | no binding | no binding | no binding | no binding | no binding | no binding | no binding | no binding |  |  | no binding | no binding | no binding | no binding | no binding | no binding | binding result [35]: binds; binding result [36]: binds; binding result [28]: no binding; binding result [29]: no binding; binding result [30]: no binding; binding result [37]: no binding; binding result [33]: no binding |
